Series [1] concerns the target T1, UBL domain of UBL4A (UBL4A_UBL), residues 1-74 (human, UniProt P11441 1-74, RED-NHS (amine reactive) dye, in the MST experiment only).
T1 sequence (looked up): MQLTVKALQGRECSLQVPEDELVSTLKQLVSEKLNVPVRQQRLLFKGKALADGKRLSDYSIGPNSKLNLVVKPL
The series is described as follows: MST; labelled UBL at 0.4 µM, unlabelled SGTA_NT 400 µM to 24.4 nM; 100 mM MES pH 6.0, 150 mM KCl, 0.5 mM TCEP; 25 °C; Monolith NT.115. The note with it: both partners purified.

Series [2] concerns the molecule itself. The series is described as follows: NMR solution structure; SGTA_NT dimer; mixed isotope labelling, filtered NOESY for intermolecular NOEs; 100 mM MES pH 6.0, 150 mM KCl, 35 °C; ARIA2.1.
Series [3] has as its target T1, UBL domain of UBL4A (UBL4A_UBL), …. The series is described as follows: ITC; 30 °C, 100 mM MES pH 6.0, 200 mM KCl; 20 injections of 2 µL SGTA_NT (dimer, 500 µM) into UBL at 50 µM (monomer); independent binding sites model. The note with it: both partners purified.

The results in this text go back to paper PMC4240585, “Solution Structure of the SGTA Dimerisation Domain and Investigation of Its Interactions with the Ubiquitin-Like Domains of BAG6 and UBL4A” (PLoS ONE, 2014).

B1: SGTA N-terminal dimerisation domain (SGTA_NT), residues 1-69 (domain or fragment, UniProt O43765 1-69, looked up)
chain: MDNKKRLAYAIIQFLHDQLRHGGLSSDAQESLEVAIQCLETAFGVTVEDSDLALPQTLPEIFEAAATGK
B1: in series [1], binding was characterised by a dissociation constant (Kd) of 3.7 µM and the “stoichiometry N” value was 1 SGTA dimer: UBL monomer. In addition, the “stoichiometry N” value in series [2] was 2. In series [3], the Kd turned out to be 3 µM, the dH was found to be 5900 ± 110 and the “stoichiometry N” value worked out at 0.949 ± 0.013.
